These results are taken from article PMC12480839, “Selective agonists of KIR and NKG2A to evade missing self response of natural killer cells” (Scientific Reports, 2025).

The target in test [1] is T1, recombinant KIR2DL2 protein (flow cytometry binding assay) (UniProt P43627).
T1 construct: KIR2DL2
Kind of test: flow cytometry on cells; recombinant receptor proteins at 0.1 µM in autoMACS Running Buffer added to 1 × 10^4 K562 cells expressing the membrane-bound scFv, 4 °C, 90 min; detected with APC anti-human IgG Fc antibody; median fluorescence normalised to control K562 cells. To be noted: one partner purified. For orientation: In flow cytometry, cells or beads pass a laser one at a time.

Test [2] has as its target T2, recombinant KIR2DL3 protein (flow cytometry binding assay) (UniProt P43628).
T2 construct: KIR2DL3; In the functional rows the receptor was whole KIR2DL3*001 expressed on NK-92 cells
The test is described as above. To be noted: one partner purified.

T1 sequence (P43627 22-245): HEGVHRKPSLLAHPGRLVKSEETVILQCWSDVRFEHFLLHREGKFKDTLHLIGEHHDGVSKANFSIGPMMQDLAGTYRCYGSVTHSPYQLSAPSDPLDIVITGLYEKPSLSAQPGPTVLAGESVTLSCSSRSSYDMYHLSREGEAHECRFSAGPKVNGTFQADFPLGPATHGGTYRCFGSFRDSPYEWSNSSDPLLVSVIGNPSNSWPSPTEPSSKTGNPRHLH
T2 sequence (P43628 22-245): as the sequence (P43627 22-245) above, with R16P, E35Q, C148R, I200T, K216E counted along it

B1: membrane-bound KIR2DL2/3 agonist 61 scFv expressed on K562 cells (scFv, V domains shown)
VH: QVQLVQSGAEVKKPGSSVKVSCKASGGTFSSFAISWVRQAPGQGLEWMGGIIPIFGTANYAQKFQGRVTITADESTSTAYMELSSLRSEDTAVYYCARVSGTTGGYYYGMDVWGQGTLVTVSS
VL: AIRMTQSPSSVSASVGDRVTITCRASQGIGNWLAWYQQKPGRAPKLLISTASSLQSGVPSRFSGGGSGRGFTLTISSLQLEDFATYYCQQSYITPWTFGQGTKVEIK
notes: (G4S)3 linker between the two scFv chains; second variable domain of agonist 61; Made with a CD8 signal peptide; firefly luciferase follows across a T2A peptide; also called scFv 61; KIR2DL2/3-specific scFv; source: K562 cells, transduced, on the cell surface; not shown: truncated human CD8 (CD8 hinge), C-terminal, kept
B1: the binding result in test [1] and in test [2] was “binds” each time.
